assay: yeast display, Sf9 membrane polyspecificity reagent, FACS + sequencing; frameworks hold sequencing errors
Method in brief: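 After 36–48 hours of galactose induction, yeast (Saccharomyces cerevisiae BJ5465) displaying a synthetic nanobody library were stained at 4 °C for 1 hour with 10% biotinylated, detergent-solubilized Sf9 membrane reagent. Streptavidin microbeads enriched the stained cells before FACS sorting into low and high (top ~1%) gates on anti-HA and streptavidin fluorescence. Each clone's polyreactivity label reflects its gate of origin.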

Sequence | polyreactivity (PSR sort gate)
QVQLQESGGGLVQARGSLRLSCSASGNISVNGFMGWYRQAPGNVRELVASIGIGGTTYYADSVKGRFSISRDNAKNTVYLQMNSLKPEDTSVYYCAASYLYYAYSYWYQGTQVTVSS | low polyreactivity
QVQLQESGGGLVQEGGSLRLRCAASRNISGSSDLGWYHQAPGKEREFVASITSGGTTYYADSVKGRFTISRDNAKNTVYLQMNSLKPEDTAVYYCAVGDPADAEFGYWGQGTQVTVSS | low polyreactivity
QVQLQESGGGLVQEGGSLRLTCAASGNISPPADMGWYRQAPGKERELVASIGTGGTTNYADSVKGRFTISRDNAKNTVYLQMNSLKPDDTAVYYCAAVRYEYNPYDYWGQGTQVSVSS | low polyreactivity
QVQLQESGGGLVQGGGSLRLSCAASGSNYRSWYMGWYRQAPGKERELVASITEGATTNYAYSVKAALPLAAITRNSVYRQMDSMKPEDTAVYYRGASFGSTYDLVYWGQGTQVTVSS | high polyreactivity
QVQLQESGGGLVQVGGSQRLSCAASGNIFYNYAMGWYRHAHGKEREFDATINHGTSINYADSVKGRFTISRDNAKNTVYLQMNSLKPEDTAVYYCAADLSWTDNLFYWGQGTQVTVSS | low polyreactivity
QVQLQESGGGLVQVGGSQRLSCAASGNNFYNYAMGWYRHAQGKEREFDATINHGTSINYADSVKGRFTISRDNAKNTVYLQMNSLKPEDTAVYYCAADLSWTDNLFYWGQGTQVTVSS | low polyreactivity
QVQLQESGGGLVQVGGSQSLICAASGNIFYNYAMGWYRHAQGKEREFDATINHGTSINYADSVKGRFTISRDNAKNTVYLQMNSLKPEDTAVYYCAADLSRTDNLFYWGQGTQVTVSS | low polyreactivity
QVQLQESGGGMVQAGGSLRLSCAASGSIFVSVTMGWYRQAPGKERELVASIGRGSTTNHADSVKGLFTISRDNAKNIVYLLMNSLKPEDTAVYYCAALESYAKYHGYWGQGTQVTVSS | low polyreactivity
QVQLQESGGGQVQAGGSLRLSCAASGSIYDDTYMGWYRQAPGKERELVATIDSGSTTNYADSVIGRITISRDNAKNTVYLQMNSLKPEDTAVYYCAAADSHIDYFDYWGQGTQVTVSS | low polyreactivity
QVQLQESGGGQVQAGGSLRLSCAASGTISPLPAMGWYRQAPGKEREFVAGIDTGAITNYADSVKGRFTISRDNAKNTVYLQMISLKPEDTAVYYCAVFPAAYDYYERYYTYWGQGTQVYVSS | low polyreactivity
QVQLQESGGGQVQAGGSLRLSCAASGYISTHYFMGWYRQAPGKDREFVAGISNGSITNYADSVKGRFTISRDNARNTVYLQMNSLKPEDTEVYYGAAYEWTYVRFGYWGQGTQVTVSG | high polyreactivity
QVQLQESGGGQVQAGGSLRQSCAASGSIFQATYMGWDRQAPSKEREFVASITYGSITNYADSVKGRFTIGRDNAKDTWYLQMNSLKPEDAAVYYCAVDRHYIPAFHYWGQGTQVNVSS | low polyreactivity
QVQLQESGGGVQAGGSLRLSCAASGSISAPILMGWYRQAPGKERELVAGIGGGANTYYADSVKGRFTVSRDNAKYTVYLQMNSLKPEDTAVYYCAAGDYYWTNFGYWGQGTQVTASS | high polyreactivity
QVQLQESGGGVQAGGSLRLSCAASGSISAPILMVWYRQAPGKERELVAGIGGGANTYYADSVKGRFTVSRDNAKYTVYLQMNSLKPEDTAVYYCAAGDYYWTNFGYWGQGTQVTASS | high polyreactivity
QVQLQESGGLVQAGGSLRLSCAASGSISGRNVMGWYRQSPGKEREFVASITDGSSNNYADSVKGRFTISRDNAKNTVYLQMNSLKPKDTAVYYCAAYAQRAKSFGYWGRGTQVTVSS | low polyreactivity
QVQLQESGGLVQAGGSLRMSCAASGSISGRNVMGWYRQAPGKEREFVASITDGSSTNYADSVKGRFTISRDNAKNTLFLQMNSLKPKDTAVYYCAAYAQRGKSFGYWGRGTQVTVSS | low polyreactivity
QVQLQESGGVLVQEGGSLRLSCAASGNISPQADMGWYRQATGTERELVASIGTGGTTNYADSVKGRFTISRDNAKNTVYLQMNRLKPDDTAVYYCAAVRYEYNPYDYWGQGTQVTVSS | low polyreactivity
QVQLQESGRRPGSAGVSPRMSCAASGNIFWVAVMCRYRQAPGKERELVASIGFGCTTYYADSVKCRFTISRDNAKITVYLQMLSLKPFDTAVYYCAAPHYDWGELDYWGQGTQVPVSS | low polyreactivity

— the nanobody polyreactivity screen of Harvey et al. (2022)
